# Values joined by “and” are separate entries in the source; they are usually repeats but may differ in a detail not shown here. Identical values can stand only once.
# Legend:
# [1] = substrate: COC(=O)[C@H](c1ccccc1Cl)N1CCc2sccc2C1; assay: not read
# [2] = substrate: CC(=O)O[C@H]1C=C[C@H]2[C@H]3Cc4ccc(O)c5c4[C@@]2(CCN3C)[C@H]1O5; assay: (§1) Activity at human recombinant CES1 expressed in baculovirus-infected Spodoptera frugiperda Sf21 cells assessed as substrate hydrolysis by fluorescence assay
# [3] = substrate: CC(=O)Oc1ccc([N+](=O)[O-])cc1; assay: as §1
# [4] = substrate: CC(=O)Oc1ccc2c(C)cc(=O)oc2c1; assay: as §1
# [5] = substrate: CC(=O)Oc1ccc2c3c1O[C@H]1[C@@H](OC(C)=O)C=C[C@H]4[C@@H](C2)N(C)CC[C@@]341; assay: as §1
# [6] = substrate: CC(C)=C[C@H]1[C@H](C(=O)OCc2coc(Cc3ccccc3)c2)C1(C)C; assay: as §1
# [7] = substrate: CC(C)C[C@H](N)C(=O)OC[C@H]1O[C@@H](n2cc(F)c(=O)[nH]c2=O)C[C@@H]1O; assay: as §1
# [8] = substrate: CC(C)[C@H](N)C(=O)OC[C@H]1O[C@@H](n2cc(F)c(=O)[nH]c2=O)C[C@@H]1O; assay: as §1
# [9] = substrate: CC1(C)[C@@H](C=C(Cl)Cl)[C@@H]1C(=O)OCc1cccc(Oc2ccccc2)c1; assay: as §1
# [10] = substrate: CC1(C)[C@H](C(=O)OCc2cccc(Oc3ccccc3)c2)[C@@H]1C=C(Cl)Cl; assay: as §1
# [11] = substrate: CC1(C)[C@H](C=C(Cl)Cl)[C@@H]1C(=O)OCc1cccc(Oc2ccccc2)c1; assay: as §1
# [12] = substrate: CC1(C)[C@H](C=C(Cl)Cl)[C@H]1C(=O)OCc1cccc(Oc2ccccc2)c1; assay: as §1
# [13] = substrate: CCCC(=O)Oc1ccc([N+](=O)[O-])cc1; assay: as §1
# [14] = substrate: CCCCCOC(=O)Nc1nc(=O)n([C@@H]2O[C@H](C)[C@@H](O)[C@H]2O)cc1F; assay: as §1
# [15] = substrate: CCOC(=O)C1(c2ccccc2)CCN(C)CC1; assay: as §1
# [16] = substrate: CCOC(=O)C1=C[C@@H](OC(CC)CC)[C@H](NC(C)=O)[C@@H](N)C1; assay: as §1
# [17] = substrate: CCOC(=O)[C@H](CCc1ccccc1)N[C@@H](C)C(=O)N(CC(=O)O)C1Cc2ccccc2C1; assay: as §1
# [18] = substrate: CCOC(=O)[C@H](CCc1ccccc1)N[C@@H](C)C(=O)N1C(=O)N(C)C[C@H]1C(=O)O; assay: as §1
# [19] = substrate: CCOC(=O)[C@H](CCc1ccccc1)N[C@@H](C)C(=O)N1Cc2ccccc2C[C@H]1C(=O)O; assay: as §1
# [20] = substrate: CCOC(=O)[C@H](CCc1ccccc1)N[C@H]1CCCN2CCC[C@@H](C(=O)O)N2C1=O; assay: as §1
# [21] = substrate: CCOC(=O)[C@H](CCc1ccccc1)N[C@H]1CCc2ccccc2N(CC(=O)O)C1=O; assay: as §1
# [22] = substrate: CCOC(=O)[C@H](CCc1ccccc1)N[C@H]1CS[C@H](c2cccs2)CN(CC(=O)O)C1=O; assay: as §1
# [23] = substrate: CCc1c2c(nc3ccc(OC(=O)N4CCC(N5CCCCC5)CC4)cc13)-c1cc3c(c(=O)n1C2)COC(=O)[C@]3(O)CC; assay: as §1
# [24] = substrate: CN(C)C(=O)COC(=O)Cc1ccc(OC(=O)c2ccc(NC(=N)N)cc2)cc1; assay: as §1
# [25] = substrate: COC(=O)[C@H](c1ccccc1)[C@H]1CCCCN1; assay: as §1
# [26] = substrate: COC(=O)[C@H]1[C@@H](OC(=O)c2ccccc2)C[C@@H]2CC[C@H]1N2C; assay: as §1
# [27] = substrate: COc1cc(C(=O)OCCCN2CCCN(CCCOC(=O)c3cc(OC)c(OC)c(OC)c3)CC2)cc(OC)c1OC; assay: as §1
# [28] = substrate: COc1ccc(C(=O)N2CCCC2=O)cc1; assay: as §1
# [29] = substrate: COc1ccc2cc(C(C#N)OC(=O)C3C(C)(C)C3(C)C)ccc2c1; assay: as §1
# [30] = substrate: COc1ccc2cc([C@@H](C#N)OC(=O)[C@@H]3[C@@H](C=C(Cl)Cl)C3(C)C)ccc2c1; assay: as §1
# [31] = substrate: COc1ccc2cc([C@@H](C#N)OC(=O)[C@H]3[C@@H](C=C(Cl)Cl)C3(C)C)ccc2c1; assay: as §1
# [32] = substrate: COc1ccc2cc([C@@H](C#N)OC(=O)[C@H]3[C@H](C=C(Cl)Cl)C3(C)C)ccc2c1; assay: as §1
# [33] = substrate: COc1ccc2cc([C@H](C#N)OC(=O)[C@@H]3[C@@H](C=C(Cl)Cl)C3(C)C)ccc2c1; assay: as §1
# [34] = substrate: COc1ccc2cc([C@H](C#N)OC(=O)[C@@H]3[C@H](C=C(Cl)Cl)C3(C)C)ccc2c1; assay: as §1
# [35] = substrate: COc1ccc2cc([C@H](C#N)OC(=O)[C@H]3[C@@H](C=C(Cl)Cl)C3(C)C)ccc2c1; assay: as §1
# [36] = substrate: COc1ccc2cc([C@H](C#N)OC(=O)[C@H]3[C@H](C=C(Cl)Cl)C3(C)C)ccc2c1; assay: as §1
# [37] = substrate: N[C@@H](CC(=O)O)C(=O)OC[C@H]1O[C@@H](n2cc(F)c(=O)[nH]c2=O)C[C@@H]1O; assay: as §1
# [38] = substrate: N[C@@H](Cc1ccccc1)C(=O)OC[C@H]1O[C@@H](n2cc(F)c(=O)[nH]c2=O)C[C@@H]1O; assay: as §1
# [39] = substrate: [H][C@@]1([C@@H](C(=O)OC)c2ccccc2)CCCCN1; assay: as §1
protein,measurement,setting,value
Liver carboxylesterase 1 (Homo sapiens) (protein) MWLRAFILATLSASAAWGHPSSPPVVDTVHGKVLGKFVSLEGFAQPVAIFLGIPFAKPPLGPLRFTPPQPAEPWSFVKNATSYPPMCTQDPKAGQLLSELFTNRKENIPLKLSEDCLYLNIYTPADLTKKNRLPVMVWIHGGGLMVGAASTYDGLALAAHENVVVVTIQYRLGIWGFFSTGDEHSRGNWGHLDQVAALRWVQDNIASFGGNPGSVTIFGESAGGESVSVLVLSPLAKNLFHRAISESGVALTSVLVKKGDVKPLAEQIAITAGCKTTTSAVMVHCLRQKTEEELLETTLKMKFLSLDLQGDPRESQPLLGTVIDGMLLLKTPEELQAERNFHTVPYMVGINKQEFGWLIPMQLMSYPLSEGQLDQKTAMSLLWKSYPLVCIAKELIPEATEKYLGGTDDTVKKKDLFLDLIADVMFGVPSVIVARNHRDAGAPTYMYEFQYRPSFSSDMKPKTVIGDHGDELFSVFGAPFLKEGASEEEIRLSKMVMKFWANFARNGNPNGEGLPHWPEYNQKEGYLQIGANTQAAQKLKDKEVAFWTNLFAKKAVEKPPQTEHIEL,Km,[1],55.7 µM
same,Km,[2],8300 µM
same,Km,[3],359 µM
same,Km,[4],800 µM
same,Km,[5],6300 µM
same,Km,[6],6.72 µM
same,Km,[7],970 µM
same,Km,[8],3580 µM
same,Km,[9],9.8 µM
same,Km,[10],23.8 µM
same,Km,[11],23.8 µM
same,Km,[12],9.8 µM
same,Km,[13],130 µM
same,Km,[14],1300 µM
same,Km,[15],1900 µM
same,Km,[16],177 µM
same,Km,[17],1500 µM
same,Km,[18],287 µM
same,Km,[19],134 µM
same,Km,[20],1300 µM
same,Km,[21],734 µM
same,Km,[22],786 µM
same,Km,[23],1450 µM
same,Km,[24],707 µM
same,Km,[25],43.8 µM
same,Km,[26],120 µM
same,Km,[27],154 µM
same,Km,[28],85 µM and 95 µM
same,Km,[29],1.5 µM
same,Km,[30],0.7 µM
same,Km,[31],1.4 µM
same,Km,[32],2.4 µM
same,Km,[33],1.7 µM
same,Km,[34],0.3 µM
same,Km,[35],1.5 µM
same,Km,[36],1.9 µM
same,Km,[37],3000 µM
same,Km,[38],460 µM
same,Km,[39],89.9 µM

# — ChEMBL document CHEMBL1157682, “In silico prediction of human carboxylesterase-1 (hCES1) metabolism combining docking analyses and MD simulations” (Bioorg Med Chem, 2010)
